Results published in article PMC10249358, “Elucidation of Short Linear Motif-Based Interactions of the FERM Domains of Ezrin, Radixin, Moesin, and Merlin” (Biochemistry, 2023).
No end group written: not given here. *: point of attachment. FITC = O=C1OC2(c3ccc(O)cc3Oc3cc(O)ccc32)c2ccc(NC(=S)*)cc21

Tests used:
Conditions in all cases: both partners purified
merlin FERM domain = target: T1, merlin FERM domain (human, UniProt P35240 22-312); assay: fluorescence polarisation; direct binding: 5 nM FITC-labeled probe peptide titrated with FERM domain; 20 mM HEPES pH 7.4, 150 mM NaCl, 0.05% Tween-20, 3 mM DTT; quadratic equation for 1:1 binding
T1 construct: human merlin (NF2) FERM domain, amino acids 22-312, synthetic gene in pETM33; source: E. coli BL21(DE3), purified (GSH sepharose, HRV3C cleavage, reverse Ni-IMAC); not shown: His, N-terminal, cleaved; GST, N-terminal, cleaved
T1 sequence (looked up): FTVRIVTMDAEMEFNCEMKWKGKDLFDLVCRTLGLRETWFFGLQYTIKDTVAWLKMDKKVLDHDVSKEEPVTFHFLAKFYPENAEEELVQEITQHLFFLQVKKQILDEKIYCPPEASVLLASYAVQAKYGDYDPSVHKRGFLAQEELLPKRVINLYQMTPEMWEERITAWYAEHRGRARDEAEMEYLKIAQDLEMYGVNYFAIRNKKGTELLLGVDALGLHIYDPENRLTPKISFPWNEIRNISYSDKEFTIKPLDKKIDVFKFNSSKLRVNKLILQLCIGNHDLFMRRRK

[1] = target: T2, radixin FERM domain (as used in FP) (human, UniProt P35241 5-295); assay: as above
T2 construct: human radixin FERM domain, amino acids 5-295, synthetic gene in pETM33; source: E. coli BL21(DE3), purified (GSH sepharose)
T2 sequence (P35241 5-295): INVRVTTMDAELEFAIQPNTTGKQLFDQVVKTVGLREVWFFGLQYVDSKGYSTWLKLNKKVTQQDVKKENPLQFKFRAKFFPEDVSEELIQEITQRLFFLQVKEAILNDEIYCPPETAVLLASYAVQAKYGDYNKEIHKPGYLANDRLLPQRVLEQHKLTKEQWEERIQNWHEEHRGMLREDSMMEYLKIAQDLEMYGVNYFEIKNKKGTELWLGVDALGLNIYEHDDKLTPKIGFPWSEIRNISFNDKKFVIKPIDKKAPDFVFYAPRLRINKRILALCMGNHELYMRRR

moesin FERM domain [2] = target: T3, moesin FERM domain (UniProt P26038 2-295); assay: fluorescence polarisation; competition: precomplex of FERM domain (2 x KD) and FITC-KIRREL3(637–652) probe, titrated with unlabeled peptide; constants printed as KD′; FP buffer
T3 construct: moesin FERM domain from pGEX4T Moesin FERM; also called WT moesin; source: E. coli BL21(DE3), purified (GSH sepharose, thrombin cleavage on beads, benzamidine column, gel filtration); not shown: GST, N-terminal, cleaved
T3 sequence (P26038 2-295): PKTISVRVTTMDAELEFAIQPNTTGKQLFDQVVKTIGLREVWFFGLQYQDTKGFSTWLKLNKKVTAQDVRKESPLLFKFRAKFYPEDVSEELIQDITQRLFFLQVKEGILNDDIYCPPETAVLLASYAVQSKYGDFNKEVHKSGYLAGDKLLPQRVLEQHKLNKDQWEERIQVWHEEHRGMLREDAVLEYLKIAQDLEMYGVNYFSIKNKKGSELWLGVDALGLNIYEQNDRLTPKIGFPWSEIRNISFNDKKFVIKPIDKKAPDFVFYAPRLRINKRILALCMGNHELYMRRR

moesin FERM domain [3] = target: T3, moesin FERM domain; assay: fluorescence polarisation; competition: precomplex of moesin FERM and FITC-ZNF622 probe, titrated with unlabeled peptide; constants printed as KD′; FP buffer (for HIF1A the text names FITC-NOP53 as probe, the table's footnote FITC-ZNF622)
[4] = target: T4, ezrin FERM domain (as used in FP) (UniProt P15311 2-296); assay: fluorescence polarisation; competition: precomplex of FERM domain (2 x KD) and FITC-KIRREL3(637–652) probe, titrated with unlabeled peptide; constants printed as KD′; FP buffer
T4 construct: ezrin FERM domain from pGEX4T1 Ezrin FERM; source: E. coli BL21(DE3), purified (GSH sepharose)
T4 sequence (P15311 2-296): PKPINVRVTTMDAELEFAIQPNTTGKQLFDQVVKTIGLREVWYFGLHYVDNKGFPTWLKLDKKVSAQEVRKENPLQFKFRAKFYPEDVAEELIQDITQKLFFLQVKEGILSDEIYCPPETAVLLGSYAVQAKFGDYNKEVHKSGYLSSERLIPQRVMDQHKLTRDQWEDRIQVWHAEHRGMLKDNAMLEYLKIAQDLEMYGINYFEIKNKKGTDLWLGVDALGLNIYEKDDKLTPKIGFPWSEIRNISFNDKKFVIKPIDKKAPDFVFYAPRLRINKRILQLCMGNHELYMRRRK

[5] = target: T2, radixin FERM domain (as used in FP); assay: as above
moesin FERM M285A/H288A [6] = target: T5, moesin FERM M285A/H288A (UniProt P26038 2-295, M285A | H288A); assay: fluorescence polarisation; direct binding: 5 nM FITC-labeled probe peptide titrated with FERM domain; 20 mM HEPES pH 7.4, 150 mM NaCl, 0.05% Tween-20, 3 mM DTT; quadratic equation for 1:1 binding
T5 construct: moesin FERM domain from pGEX4T Moesin FERM, double mutant; tag removal is told for moesin FERM in FP in general; also called moesin FERM M285/H288A; source: E. coli BL21(DE3), purified; not shown: GST, N-terminal, cleaved
T5 sequence (P26038 2-295 M285A/H288A): as the sequence (P26038 2-295) above, with M284A, H287A counted along it

moesin FERM K211A/I238A [7] = target: T6, moesin FERM K211A/I238A (UniProt P26038 2-295, K211A | I238A); assay: as above
T6 construct: moesin FERM domain from pGEX4T Moesin FERM, double mutant; tag removal is told for moesin FERM in FP in general; also called moesin K211A/I238A; source: E. coli BL21(DE3), purified; not shown: GST, N-terminal, cleaved
T6 sequence (P26038 2-295 K211A/I238A): as the sequence (P26038 2-295) above, with K210A, I237A counted along it

Moesin FERM M285A/H288A [8] = target: T7, Moesin FERM M285A/H288A (human, UniProt P26038 2-295, M285A | H288A); assay: fluorescence polarisation; direct binding: FITC-labeled probe peptide (5 nM) titrated with a dilution series of moesin FERM domain; 20 mM HEPES, pH 7.4, 150 mM NaCl, 0.05% Tween-20, 3 mM DTT; quadratic equation for 1:1 binding
T7 construct: moesin (P26038) FERM domain from pGEX4T Moesin FERM (Addgene plasmid # 1163); also called moesin FERM domain (M285A and H288A); moesin FERM M285/H288A; source: E. coli BL21(DE3), purified (GSH sepharose, thrombin cleavage, HiTrap benzamidine)
T7 sequence (P26038 2-295 M285A/H288A): as the sequence (P26038 2-295) above, with M284A, H287A counted along it

Moesin FERM K211A/I238A [9] = target: T8, Moesin FERM K211A/I238A (human, UniProt P26038 2-295, K211A | I238A); assay: as above
T8 construct: moesin (P26038) FERM domain from pGEX4T Moesin FERM (Addgene plasmid # 1163); also called moesin K211A/I238A; double mutant moesin FERM K211A/I238A; source: E. coli BL21(DE3), purified (GSH sepharose, thrombin cleavage, HiTrap benzamidine)
T8 sequence (P26038 2-295 K211A/I238A): as the sequence (P26038 2-295) above, with K210A, I237A counted along it

B1: FITC-ZNF622(341–356) peptide (peptide, UniProt Q969S3 341-356, looked up)
peptide: LEFADFYDFRSSYPDH
modifications: not fully specified (N-terminus); also: FITC label (position not given here)
notes: also called FITC-ZNZ622; source: synthetic peptide (GeneCust)
Merlin FERM domain
  binding result: binds
[1]
  binding result: binds

B2: LATS1(421–436) peptide (peptide)
peptide: LYNISVPGLQTNWPQS
notes: LATS1, human, residues 421-436; source: synthetic peptide (GeneCust)
Moesin FERM domain [2]
  Kd: 149 ± 5 µM

B3: HIF1A(37–52) peptide (peptide)
peptide: FYELAHQLPLPHNVSS
notes: HIF1A, human, residues 37-52; source: synthetic peptide (GeneCust)
Moesin FERM domain [3]
  Kd: 3 ± 0.4 µM

B4: ICAM3(516–531) peptide (peptide)
peptide: SGSYHVREESTYLPLT
notes: ICAM3, human, residues 516-531; source: synthetic peptide (GeneCust)
Moesin FERM domain [2]
  Kd: 113 ± 3 µM

B5: GCM2(274–289) peptide (peptide)
peptide: SYELANPGYTNSSPYP
notes: GCM2, human, residues 274-289; source: synthetic peptide (GeneCust)
Moesin FERM domain [2]
  Kd: 38 ± 3 µM
[4]
  Kd: 205 ± 11 µM
[5]
  Kd: 85 ± 3 µM

B6: FITC-FAM83G(111–126) peptide (peptide, UniProt A6ND36 111-126, looked up)
peptide: AEPLPSLEYWPQKSDR
modifications: also: FITC label (position not given here)
notes: FAM83G, human, residues 111-126; source: synthetic peptide (GeneCust)
[1]
  binding result: binds

B7: FITC-KIRREL3(637–652) peptide (peptide, UniProt Q8IZU9 637-652, looked up)
peptide: YYSVNTFKEHHSTPTI
modifications: also: FITC label, position not given here
notes: source: synthetic peptide (GeneCust)
[1]
  binding result: binds

B8: BOC(1000–1015) peptide (peptide)
peptide: LYTLPDDSTHQLLQPH
notes: BOC, human, residues 1000-1015; source: synthetic peptide (GeneCust)
Moesin FERM domain [2]
  Kd: 18 ± 1 µM
[4]
  Kd: 8 ± 0.1 µM
[5]
  Kd: 17 ± 2 µM

B9: RORA(185–200) peptide (peptide)
peptide: TYNISANGLTELHDDL
notes: RORA, human, residues 185-200; source: synthetic peptide (GeneCust)
Moesin FERM domain [2]
  Kd: 134 ± 3 µM

B10: RRBP1(1365–1380) peptide (peptide)
peptide: RAATRLQELLKTTQEQ
notes: RRBP1, human, residues 1365-1380; also called RRBP1 peptide; source: synthetic peptide (GeneCust)
Merlin FERM domain
  Kd: 9.7 ± 0.8 µM

B11: PDCD6IP(853–868) peptide (peptide)
peptide: SYPFPQPPQQSYYPQQ
notes: PDCD6IP, human, residues 853-868; source: synthetic peptide (GeneCust)
Moesin FERM domain [2]
  Kd: 35.2 ± 0.2 µM

B12: FITC-EBP50(348–358) peptide (peptide, UniProt O14745 348-358, looked up)
peptide: WSKKNELFSNL
modifications: also: FITC label, position not given here
notes: as for B7
Merlin FERM domain
  binding result: binds
[1]
  binding result: binds
Moesin FERM M285A/H288A [6]
  binding result: binds
Moesin FERM K211A/I238A [7]
  binding result: binds

B13: FITC-TBX4(428–443) peptide (peptide, UniProt P57082 428-443, looked up)
peptide: SYSVQTMETVPYQPFP
modifications: also: FITC label, position not given here
notes: T-box transcription factor TBX4, human, residues 428-443; source: synthetic peptide (GeneCust)
[1]
  binding result: binds

B14: FITC-LATS1(73–88) peptide (peptide)
peptide: THHKALQEIRNSLLPF
modifications: also: FITC label, position not given here
notes: LATS1, human, residues 73-88; also called LATS(73–88); source: synthetic peptide (GeneCust)
Merlin FERM domain
  binding result: binds
[1]
  binding result: binds

B15: MISP(595–610) peptide (peptide)
peptide: ITGSYSVSESPFFSPI
notes: also called MISP3 peptide; source: synthetic peptide (GeneCust)
Moesin FERM domain [2]
  Kd: 2.3 ± 0.1 µM

B16: FITC-NOP53(192–207) peptide (peptide)
peptide: FYDLWASDNPLDRPLV
modifications: also: FITC label, position not given here
notes: NOP53, human, residues 192-207; source: synthetic peptide (GeneCust)
Merlin FERM domain
  binding result: binds
[1]
  binding result: binds

B17: CAMK2B(13–28) peptide (peptide)
peptide: EYQLYEDIGKGAFSVV
notes: CAMK2B, human, residues 13-28; source: synthetic peptide (GeneCust)
Moesin FERM domain [2]
  Kd: 96 ± 4 µM
[4]
  Kd: 26 ± 0.6 µM
[5]
  Kd: 6.8 ± 0.4 µM

B18: FITC-EBP50 343-358 peptide (peptide)
peptide: {FITC}-APQMDWSKKNELFSNL-OH
modifications: not fully specified
notes: also called NHERF1; source: synthetic peptide (GeneCust)
Moesin FERM M285A/H288A [8]
  Kd: 3.1 ± 0.2 µM
Moesin FERM K211A/I238A [9]
  Kd: 114 ± 7 µM

B19: FITC-ZNF622 341-356 peptide (peptide)
peptide: LEFADFYDFRSSYPDH
modifications: also: FITC label, position not given here
notes: as for B7
Moesin FERM M285A/H288A [8]
  Kd: 1.3 ± 0.1 µM
Moesin FERM K211A/I238A [9]
  Kd: 46 ± 2 µM

B20: FITC-LATS1 73-88 peptide (peptide)
peptide: THHKALQEIRNSLLPF
modifications: also: FITC label, position not given here
notes: LATS1, residues 73-88; source: synthetic peptide (GeneCust)
Moesin FERM M285A/H288A [8]
  Kd: 1.3 ± 0.1 µM
Moesin FERM K211A/I238A [9]
  Kd: 7.4 ± 0.5 µM

B21: FITC-NOP53 192-207 peptide (peptide)
peptide: FYDLWASDNPLDRPLV
modifications: also: FITC label, position not given here
notes: NOP53, residues 192-207; source: synthetic peptide (GeneCust)
Moesin FERM M285A/H288A [8]
  Kd: 2.2 ± 0.1 µM
Moesin FERM K211A/I238A [9]
  Kd: 42 ± 1 µM

B22: FITC-TBX4 428-443 peptide (peptide)
peptide: SYSVQTMETVPYQPFP
modifications: also: FITC label, position not given here
notes: TBX4 (T-box transcription factor TBX4), residues 428-443; source: synthetic peptide (GeneCust)
Moesin FERM M285A/H288A [8]
  Kd: 6.9 ± 0.4 µM
Moesin FERM K211A/I238A [9]
  Kd: 2.17 ± 0.31 µM

B23: FITC-KIRREL3 637-652 peptide (peptide)
peptide: YYSVNTFKEHHSTPTI
modifications: also: FITC label, position not given here
notes: as for B7
Moesin FERM M285A/H288A [8]
  Kd: 0.84 ± 0.05 µM
Moesin FERM K211A/I238A [9]
  Kd: 0.17 ± 0.02 µM

B24: RIMS1(1405–1420) peptide (peptide)
peptide: MYTLEHNDGSQSDTAV
notes: RIMS1, human, residues 1405-1420; source: synthetic peptide (GeneCust)
Moesin FERM domain [2]
  Kd: 564 ± 5 µM
